B1: mRNA-splicing (parent)
chain: AGUUGCUGCUGGGAGCUCCAGCACAGUGAAAUGGACAGAAGGGCAGAGCAA

The text below walks through data of the RNAGym collection of RNA variant scans (doi:10.1101/gr.219683.116).

In this series the parent is B1. In words: exon inclusion enrichment index; higher = more inclusion; WT1 exon 5 minigene, HEK293.
Regarding G5C C6A U7C G8A U10A G38U A39C, the “exon inclusion enrichment index” value is 0.0552.
For G5C C6A U7C G8A U10A G38U A39U the value was 0.00131.
For G5C C6A U7C G8A U10A G38U A39G the value was 0.0343.
In the case of G5C C6A U7C G8A U10A G13A A14U it was 0.645; in that of G5C C6A U7C G8A U10A G13A A14G, 0.424; in that of G5C C6A U7C G8A U10A G13A A14C, 0.899.
G5C C6A U7C G8A U10A C36A A37C: the “exon inclusion enrichment index” value worked out at 0.146.
As to G5C C6A U7C G8A U10A C36A A37G, the “exon inclusion enrichment index” value was determined as 0.0468.
For G5C C6A U7C G8A U10A C36A A37U the value was 0.0382.
As to G5C C6A U7C G8C C9G U10A, the “exon inclusion enrichment index” value amounted to 2.51.
With G5C C6A U7C G8A U10A G11U, the “exon inclusion enrichment index” value was determined as 0.955.
For G5C C6A U7C G8A U10A G11C the value was 0.99; for G5C C6A U7C G8A U10A G11A, 0.832.
In the case of G5C C6A U7C G8A U10A G38C A39G it was 0.111; in that of G5C C6A U7C G8A U10A G38C A39U, 0.00505.
For G5C C6A U7C G8A U10A G38C A39C the value was 0.136.
On to G5C C6A U7C G8A U10A U17A C18A, for which the “exon inclusion enrichment index” value was found to be 0.043.
In the case of G5C C6A U7C G8A U10A U17A C18U it was 0.0447; in that of G5C C6A U7C G8A U10A U17A C18G, 0.0895; in that of G5C C6A U7C G8A U10A C19A A20G, 0.00417.
In the case of G5C C6A U7C G8A U10A C19A A20C it was 0.0294; in that of G5C C6A U7C G8A U10A C19A A20U, 0.00249; in that of G5C C6A U7C G8A U10A A47U, 0.108.
As for G5C C6A U7C G8A U10A A47U G48U, the “exon inclusion enrichment index” value stood at 0.111.
As to G5C C6A U7C G8A U10A A47U G48A, the “exon inclusion enrichment index” value is 0.071.
In the case of G5C C6A U7C G8A U10A A47U G48C it was 0.0757.
In the case of G5C C6A U7C G8C C9U U10A it was 0.107; in that of G5C C6A U7C G8C C9U U10C, 1.98.
For G5C C6A U7C G8A U10A C16U U17G the value was 0.0279.
Take G5C C6A U7C G8A U10A C16U U17A: the “exon inclusion enrichment index” value is 0.048.
For G5C C6A U7C G8A U10A C16U U17C the value was 0.0203; for G5C C6A U7C G8A U10A C22G A23C, 0.0525; for G5C C6A U7C G8A U10A C22G A23G, 0.043.
In the case of G5C C6A U7C G8A U10A C22G A23U it was 0.0222; in that of G5C C6A U7C G8A U10A C36U A37U, 0.0725; in that of G5C C6A U7C G8A U10A C36U A37G, 0.111.
For G5C C6A U7C G8A U10A C36U A37C the value was 0.0938.
In the case of G5C C6A U7C G8A U10A G43A, the “exon inclusion enrichment index” value amounted to 0.595.
In the case of G5C C6A U7C G8A U10A G43C it was 0.238.
For G5C C6A U7C G8A U10A G43U the value was 0.0948; for G5C C6A U7C G8A U10A G28U A29C, 0.0517.
Consider G5C C6A U7C G8A U10A G28U A29G, for which the “exon inclusion enrichment index” value is 0.0731.
For G5C C6A U7C G8A U10A G28U A29U the value was 0.00263.
For G5C C6A U7C G8A U10A C19G A20G the value was 0.0527.
In the case of G5C C6A U7C G8A U10A C19G A20U it was 0.0711; in that of G5C C6A U7C G8A U10A C19G A20C, 0.111.
G5C C6A U7C G8A U10A G12U G13U: the “exon inclusion enrichment index” value amounted to 0.00142.
For G5C C6A U7C G8A U10A G12U G13A the value was 0.0173; for G5C C6A U7C G8A U10A G12U G13C, 0.0217; for G5C C6A U7C G8A U10A C44A A45U, 0.339.
For G5C C6A U7C G8A U10A C44A A45C the value was 0.385.
In the case of G5C C6A U7C G8A U10A C44A A45G it was 0.213; in that of G5C C6A U7G C9A, 0.352.
Consider G5C C6A U7C G8A U10A C22A, for which the “exon inclusion enrichment index” value came out at 0.0834.
In the case of G5C C6A U7C G8A U10A C22U it was 0.0831; in that of G5C C6A U7C G8A U10A C22G, 0.197; in that of G5C C6A U7C G8A U10A U27A, 0.151.
In the case of G5C C6A U7C G8A U10A U27G it was 0.0422; in that of G5C C6A U7C G8A U10A U27C, 0.417.
For G5C C6A U7C G8A U10A C16A U17C the value was 0.0679.
In the case of G5C C6A U7C G8A U10A C16A U17A, the “exon inclusion enrichment index” value was 0.05.
For G5C C6A U7C G8A U10A C16A U17G the value was 0.0171; for G5C C6A U7C G8A U10A C36G, 0.0563; for G5C C6A U7C G8A U10A C36U, 0.0372.
In the case of G5C C6A U7C G8A U10A C36A it was 0.0935; in that of G5C C6A U7C G8A U10A G21A C22U, 0.0694.
In the case of G5C C6A U7C G8A U10A G21A C22A it was 0.0529; in that of G5C C6A U7C G8A U10A G21A C22G, 0.156; in that of G5C C6A U7C G8A U10A C18A, 0.0467.
With G5C C6A U7C G8A U10A C18U, the “exon inclusion enrichment index” value stood at 0.054.
G5C C6A U7C G8A U10A C18G: the “exon inclusion enrichment index” value stood at 0.097.
In the case of G5C C6A U7G G8C U10A it was 0.0276; in that of G5C C6A U7C G8A U10A G33C, 0.162.
For G5C C6A U7C G8A U10A G33U the value was 0.0519; for G5C C6A U7C G8A U10A G33A, 0.00667; for G5C C6A U7G G8C C9U U10C, 1.36.
On to G5C C6A U7C G8A U10A G38A, for which the “exon inclusion enrichment index” value was 0.0452.
Regarding G5C C6A U7C G8A U10A G38C, the “exon inclusion enrichment index” value stood at 0.0648.
In the case of G5C C6A U7C G8A U10A G38U it was 0.0342.
Take G5C C6A U7C G8A U10A G42A G43A: the “exon inclusion enrichment index” value is 1.43.
For G5C C6A U7C G8A U10A G42A G43C the value was 1.53; for G5C C6A U7C G8A U10A G42A G43U, 1.25.
In the case of G5C C6A U7C G8U C9G U10A it was 0.381; in that of G5C C6A U7C G8A U10A G43A C44U, 0.16.
